Data set [1] concerns Klebsiella pneumoniae biofilms. Nature of the data set: in vitro disruption of pre-formed biofilms, LIVE/DEAD, CLSM and COMSTAT. The format is cell-based. The following applies: for disruption of established K. pneumoniae biofilms (average thickness, biomass): 200 nM added at 24 h, 16 h incubation; for % reduction in average thickness (AT), mean±SE / % reduction in biomass (BM), mean±SE: 200 nM added to pre-formed biofilms at 24 h, read at 40 h, vs untreated KP biofilms. Here is the method: FIGS. 5A-5E: Anti-biofilm effect of HMGB1 variants on high priority bacterial pathogens. Indicated HMGB1 variants or antibodies against DNABII proteins (α-1HFEc 1gG, 1 μM) were added at 24 h to the respective preformed bacterial biofilms, in vitro. After 16 h of Incubation, biofilms were stained with LIVE/DEAD®, then visualized via confocal laser scanning microscopy. Images were analyzed by COMSTAT to calculate average thickness and comparison to control was plotted. (FIG. 5A) Full-length HMGB1 isoforms (200 nM unless otherwise indicated) added to UPEC, B. cenocepacia, NTHI, or ESKAPE pathogens. 800 nM rHMGB1 and 200 nM mHMGB1 were added for S. aureus (ESKAPE). 800 nM rHMGB1, 800 nM mHMGB1, or 3.3 μM of α-1HFEc 1gG were added for E. faecium (ESKAPE) and were incubated for 1 h as opposed to 16 h to avoid potential degradation by E. faecium proteases. (FIG. 5B) Representative images of UPEC biofilms incubated with increasing concentrations of rHMGB1. (FIG. 5C) Individual domains of HMGB1 (200 nM) were tested for anti-biofilm activity as above (dotted line indicates control values). Bars represent the SEM. Statistical significance compared to control was assessed with unpaired t-tests, *P<0.05. […] (FIGS. 5D-5E) HMGB1 and variants disrupt preformed Klebsiella pneumoniae biofilms. rHMGB1, HMGB1 C45S (mHMGB1), bovine HMGB1 (bHMGB1), B box, B Box C106S (mB Box), A Box, and A+B Box were added (200 nM) at 24 h to preformed K. pneumoniae biofilms. After 16 h of incubation, biofilms were stained with LIVE/DEAD®, then visualized via confocal laser scanning microscopy. Images were analyzed by COMSTAT to calculate average thickness and total biomass. Error bars represent the SEM. ***P<0.0001; ns=not significant.
An in vitro biofilm assay was used to test the effect of HMGB1 and its variants on established bacterial biofilms. Applicant expressed, (in E. coli) and purified >95% human recombinant full length HMGB1 (rHMGB1; 1-215), a C45S mutated variant (mHMGB1) and the HMGB1 domains A Box (1-89), A+B Boxes (1-176), B Box (80-179), and B Box C106S (mB Box) (FIG. 3). […] To evaluate the effect of HMGB1 and its variants as well as a commercially available native bovine HMGB1 (used as a control) on established bacterial biofilms, each protein was added (at 200 nM), to pre-formed Klebsiella pneumoniae biofilms after 24 h of growth. After a 16 h incubation (40 h total biofilm growth), the biofilms were stained with LIVE/DEAD® and analyzed using confocal laser scanning microscopy (CLSM) and COMSTAT analysis to calculate the average thickness and total biomass of the biofilms. […] The results of this study lead to a noteworthy observation that a single dose of these non-antimicrobial compounds was able to disrupt recalcitrant biofilms. In addition, the HMGB1 variants have disrupted every bacterial species tested to date, which includes Uropathogenic E. coli, Burkholderia cenocepacia, Nontypeable Haemophilus influenzae (FIG. 6). A single dose at this concentration released of bacteria from their protective shield makes them vulnerable to clearance by antibiotics and the immune system.
Klebsiella pneumoniae (KP), a common cause of nosocomial infections was used for all BBs disruption assays. Human recombinant full length HMGB1 (rHMGB1; 1-215), a C45S mutation variant (mHMGB1) and the HMGB1 domains A Box (1-89), B Box (90-176), AB Boxes (1-176), B-linker Box (80-179), and B-linker Box C106S were expressed (in E. coli) and purified to >95%. To evaluate the effect of rHMGB1 and the various domains on established BBs, each protein species (200 nM) was added to pre-formed BBs at 24 h. At 40 h the BBs were washed, stained with LIVE/DEAD®, visualized via confocal laser scanning microscopy and images were analyzed by COMSTAT to calculate average thickness and biomass.

A further data set concerns serum TNF-alpha (TNF-α). The data set is classed as in vivo, mice. As to conditions: 24 h; for serum TNF elicited on their own: 0.2 nmol endotoxin free protein i.p., naive mice; for additional pro-inflammatory signaling in LPS-primed mice: 0.2 nmol i.p. with LPS 5 mg/kg. Here is the method:
FIGS. 7A-7G: HMGB1 promotes clearance of S. cenocepaca from mice without inducing sepsis. C57BL/6 mice were challenged with 10^7 CFU intratracheally, and either simultaneously (prevention) or 24 h later (treatment) received 0.2 nmol of HMGB1 valiant. (FIG. 7A) Aggregates of B. cenocepacia were visible by fluorescence microscopy in lung sections probed with an α-B. cenocepacia antibody. For prevention, (FIG. 7B) bronchoalveolar lavage (BAL) collected 18 h post-inoculation (hpi) was analyzed for CFU. (FIG. 7C) Neutrophils in BAL were quantified by differential cell counting. (FIG. 7D) Lung tissue collected 72hpi was fixed, embedded, sectioned, and stained with hematoxylin & eosin (10× magnification). For treatment, 72hpi (FIG. 7E) CFUs were quantified in BAL. (FIG. 7F) Neutrophil recruitment was analyzed 24 h after intraperitoneal (i.p.) administration of HMGB1 valiants by fluorescence-activated cell sorting of peritoneal lavage stained with α-CD45, α-CD11b, and αLy-6G. (FIG. 7G) Serum TNF-α. was measured by ELISA in mice injected i.p. with 0.2 nmol HMGB1 valiants, 5 mg/kg LPS, or both. LoD: limit of detection. Bars represent SD. *P<0.05.
Mice were monitored for 24 h for signs of sepsis, then serum TNF-alpha (TNF-α) levels were measured by ELISA as a surrogate for sepsis induction. […] It has been reported, that compared to our doses, >450-fold for B Box alone, or 4 doses of 2-fold greater amounts of rHMGB1 in 40 h with lipopolysaccharide (LPS)-primed mice20 are required to induce sepsis. In addition, these endotoxin-free polypeptides were tested for anti-biofilm activity in vitro as described above and found to maintain full function against UPEC and Bc biofilms (data not shown).

For the molecule “rHMGB1: tagless human recombinant full length HMGB1 (1-215) expressed in E. coli”, in data set [1], the “disruption of established K. pneumoniae biofilms (average thickness, biomass)” value is “significantly disrupt”; the “% reduction in average thickness (AT), mean±SE” value (“% reduction … (AT), mean±SE” for short) is reported as 44%±0.33; the “% reduction in biomass (BM), mean±SE” value is given as 61%±0.01. Further, in the data set with serum TNF-alpha (TNF-α), the “serum TNF elicited on their own” value was “neither rHMGB1, B Box, nor mB Box elicited detectable TNF” and the “additional pro-inflammatory signaling in LPS-primed mice” value was “none induced additional pro-inflammatory signaling”.

B1: B-linker Box: HMGB1 B Box with N- and C-terminal linker (80-179; 80 to 176 in b258), 97 amino acid (protein, UniProt P09429 80-179, looked up, fragment)
chain: PPKGETKKKFKDPNAPKRPPSAFFLFCSEYRPKIKGEHPGLSIGDVAKKLGEMWNNTAADDKQPYEKKAAKLKEKYEKDIAAYRAKGKPDAAKKGVVKAE
Take B1: in data set [1], the “disruption of established K. pneumoniae biofilms (average thickness, biomass)” value was “retained full anti-biofilm activity”; the “% reduction … (AT), mean±SE” value is 77%±0.03; the “% reduction in biomass (BM), mean±SE” value is on record as 67%±0.01. In the data set on serum TNF-alpha (TNF-α), the “serum TNF elicited on their own” value is listed as “neither rHMGB1, B Box, nor mB Box elicited detectable TNF” and the “additional pro-inflammatory signaling in LPS-primed mice” value is reported as “none induced additional pro-inflammatory signaling”.

B2: mHMGB1: engineered C45S variant of full length rHMGB1 that mimics the reduced form of HMGB1 (protein, UniProt P09429 1-215, looked up, variant C45S)
chain: MGKGDPKKPRGKMSSYAFFVQTCREEHKKKHPDASVNFSEFSKKSSERWKTMSAKEKGKFEDMAKADKARYEREMKTYIPPKGETKKKFKDPNAPKRPPSAFFLFCSEYRPKIKGEHPGLSIGDVAKKLGEMWNNTAADDKQPYEKKAAKLKEKYEKDIAAYRAKGKPDAAKKGVVKAEKSKKKKEEEEDEEDEEDEEEEEDEEDEDEEEDDDDE
modifications: full-length
notes: engineered C45S variant of full length rHMGB1 that mimics the reduced form of HMGB1
As to B2, in data set [1], the “% reduction … (AT), mean±SE” value is reported as 75%±0.04 and the “% reduction in biomass (BM), mean±SE” value is reported as 80%±0.01.
